Experimental findings from patent US20200079844A1 (Ablynx, published 2020) are described below.

Assay [1] deals with T1, human serum albumin (human, UniProt P02768 25-609).
T1 construct: On the Biacore chip; also called human albumin

Assay [2] deals with T2, rhesus serum albumin (rhesus, UniProt Q28522 17-600).
T2 construct: On the Biacore chip; also called rhesus albumin

For assay [3], the target named is T3, mouse serum albumin (mouse, UniProt P07724 25-608).
T3 construct: On the Biacore chip; also called mouse albumin
T3 sequence (P07724 25-608 limits assumed): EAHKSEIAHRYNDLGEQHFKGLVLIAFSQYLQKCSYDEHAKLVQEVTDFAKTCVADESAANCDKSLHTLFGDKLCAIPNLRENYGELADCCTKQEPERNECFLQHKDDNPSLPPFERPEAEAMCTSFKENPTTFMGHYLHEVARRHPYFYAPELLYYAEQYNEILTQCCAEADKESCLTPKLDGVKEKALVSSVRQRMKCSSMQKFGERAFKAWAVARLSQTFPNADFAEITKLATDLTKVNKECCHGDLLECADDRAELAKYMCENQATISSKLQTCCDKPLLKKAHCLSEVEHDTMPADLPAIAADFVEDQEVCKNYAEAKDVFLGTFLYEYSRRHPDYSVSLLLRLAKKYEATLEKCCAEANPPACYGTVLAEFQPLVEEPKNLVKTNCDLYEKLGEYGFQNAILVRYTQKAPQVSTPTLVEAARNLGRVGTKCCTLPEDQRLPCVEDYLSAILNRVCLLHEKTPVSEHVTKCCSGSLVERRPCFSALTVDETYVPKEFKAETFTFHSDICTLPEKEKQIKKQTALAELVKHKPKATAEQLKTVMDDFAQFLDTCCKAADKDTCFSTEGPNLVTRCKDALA

Assay [4] concerns the target T4, human TNFα (human, UniProt P01375 77-233).
T4 construct: Biotinylated in the ELISAs, amine-coupled to CM5 in Biacore; also called human TNF-alpha; hTNF-alpha

Assay [5] deals with T4, human TNFα. Briefly: cell-based or functional assay.
The target in assay [6] is T4, human TNFα. Briefly: cell-based or functional assay. This is another data set of the same source.
For assay [7], the target named is T4, human TNFα. This is another data set of the same source.
The target of assay [8] is T4, human TNFα. The source holds these as a separate data set.
The target of assay [9] is T4, human TNFα. Put plainly: ELISA on biotinylated human TNFα captured on neutravidin (as Example 10); untreated reference and mildly treated samples.

Read-outs that look alike come from different tables or passages of the source.

T2 sequence (Q28522 17-600 limits assumed): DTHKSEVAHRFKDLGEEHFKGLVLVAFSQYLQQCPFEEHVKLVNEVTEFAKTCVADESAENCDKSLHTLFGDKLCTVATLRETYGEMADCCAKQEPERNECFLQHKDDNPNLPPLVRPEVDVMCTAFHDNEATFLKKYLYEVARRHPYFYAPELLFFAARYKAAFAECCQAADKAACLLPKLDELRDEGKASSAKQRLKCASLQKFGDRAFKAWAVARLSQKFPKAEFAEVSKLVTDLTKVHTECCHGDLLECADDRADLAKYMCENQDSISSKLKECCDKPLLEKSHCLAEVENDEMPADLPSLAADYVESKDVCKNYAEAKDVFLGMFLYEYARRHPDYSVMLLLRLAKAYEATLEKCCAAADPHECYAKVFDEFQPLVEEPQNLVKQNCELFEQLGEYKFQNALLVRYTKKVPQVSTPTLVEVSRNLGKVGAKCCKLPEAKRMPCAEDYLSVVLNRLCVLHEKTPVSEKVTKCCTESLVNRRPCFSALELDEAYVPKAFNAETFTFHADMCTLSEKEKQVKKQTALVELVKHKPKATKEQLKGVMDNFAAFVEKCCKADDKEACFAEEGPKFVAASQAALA
T4 sequence (P01375 77-233 limits assumed): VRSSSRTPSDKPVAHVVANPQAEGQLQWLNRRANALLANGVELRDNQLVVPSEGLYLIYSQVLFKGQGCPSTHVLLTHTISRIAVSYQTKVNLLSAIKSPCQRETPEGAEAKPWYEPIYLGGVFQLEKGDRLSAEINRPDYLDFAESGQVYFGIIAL

B1: PMP6 G7 (VHH)
VHH: QVQLVESGGGLVQPGGSLRLSCAASGFTFSNYWMYWVRVAPGKGLERISRDISTGGGYSYYADSVKGRFTISRDNAKNTLYLQMNSLKPEDTALYYCAKDREAQVDTLDFDYRGQGTQVTVSS
notes: serum albumin nanobody, class D
In the case of B1, the binding result in assay [1] and in [2] was “binds” each time.

B2: PMP6 G8 (VHH)
VHH: AVQLVESGGGLVQPGGSLRLTCTASGFTFRSFGMSWVRQAPGKDQEWVSAISADSSTKNYADSVKGRFTISRDNAKKMLYLEMNSLKPEDTAVYYCVIGRGSPSSPGTQVTVSS
notes: serum albumin nanobody, class A
As to B2, the binding result in assay [1], in assay [3] and in assay [2] was “binds” in each case.

B3: PMP6 A5 (VHH)
VHH: QVQLAESGGGLVQPGGSLRLTCTASGFTFGSFGMSWVRQAPGEGLEWVSAISADSSDKRYADSVKGRFTISRDNAKKMLYLEMNSLKSEDTAVYYCVIGRGSPASQGTQVTVSS
notes: as for B2
For B3, the binding result in assay [1], in assay [3] and in [2] was “binds” each time.

B4: PMP1G11 (VHH)
VHH: QVQLQESGGGMVQPGGSLRLSCAASGFDFGVSWMYWVRQAPGKGLEWVSEINTNGLITKYPDSVKGRFTISRDNAKTTLYLQMNSLKPEDTALYYCARSPSGSFRGQGTQVTVSS
notes: Tested as unpurified protein
On to B4, for which the koff in assay [4] is 0.00115 s⁻¹.

B5: PMP1H6 (VHH)
VHH: EVQLVESGGGLVQPGGSLRLSCATSGFDFSVSWMYWVRQAPGKGLEWVSEINTNGLITKYVDSVKGRFTISRDNAKNTLYLQMDSLIPEDTALYYCARSPSGSFRGQGTQVTVSS
notes: Tested as unpurified protein
B5 showed a koff in assay [4] of 0.00214 s⁻¹.

B6: PMP6B4 (VHH)
VHH: EVQLVESGGGLVQEGGSLRLACAASERIWDINLLGWYRQGPGNERELVATITVGDSTSYADSVKGRFTISRDYDKNTLYLQMNSLRPEDTGLYYCKIRRTWHSELWGQGTQVTVSS
notes: Class C serum albumin nanobody; tested as unpurified protein
In the case of B6, the binding result in [1], in assay [3] and in assay [2] was “binds” in each case.

B7: PMP1H2 (VHH)
VHH: QVKLEESGGGLVQPGDSLRLSCAASGRTFSDYSGYTYTVGWFRQAPGKEREFVARIYWSSGNTYYADSVKGRFTISRDIAKNTVDLLMNNLEPEDTAVYYCAARDGIPTSRSVESYNYWGQGTQVTVSS
notes: Tested as unpurified protein
In assay [4], B7 displayed a koff of 0.00365 s⁻¹.

B8: TNF18 (TNF2 HUM4) (VHH)
VHH: EVQLVESGGGLVQPGGSLRLSCAASGRTFSEPSGYTYTIGWFRQAPGKGREFVARIYWSSGLTYYADSVKGRFTISRDIAKNTVDLQMNSLRPEDTAVYYCAARDGIPTSRSVGSYNYWGQGTQVTVSS
notes: Humanised TNF2, first round
Regarding B8, the “EC50 in nM (mean); L929s + Act D cytotoxicity assay, human TNFa @ 0.5 ng/ml” value (shortened to “EC50 in nM (mean)”) amounted to 1.51 nM in assay [5] and 3.13 nM in assay [6]. The molecule further displayed a koff in [7] of 0.0007 s⁻¹.

B9: TNF17 (TNF2 HUM3) (VHH)
VHH: EVQLVESGGGLVQPGGSLRLSCAASGRTFSEPSGYTYTIGWFRQAPGKGREFVARIYWSSGLTYYADSVKGRFTISRDNAKNTVDLQMNSLKPEDTAVYYCAARDGIPTSRSVGSYNYWGQGTQVTVSS
notes: Humanised TNF2, first round
Take B9: the results for the “EC50 in nM (mean)” value in assay [5] and in [6] were 3.02 nM and 7.55 nM, respectively. In [7], this molecule yielded a koff of 0.0011 s⁻¹.

B10: PMP3G2 (VHH)
VHH: AVQLVESGGGLVQPGDSLRLSCAASGRTFSDYSGYTYTVGWFRQAPGKEREFVARIYWSSGNTYYADSVKGRFTISRDIAKNTVDLLMNNLEPEDTAVYYCAARDGIPTSRSVESYNYWGQGTQVTVSS
notes: Tested as unpurified protein
As for B10, in assay [4], the koff is 0.0109 s⁻¹.

B11: TNF16 (TNF2 HUM2) (VHH)
VHH: EVQLVESGGGLVQPGGSLRLSCAASGFTFSEPSGYTYTIGWFRQAPGKGREFVARIYWSSGLTYYADSVKGRFTISRDIAKNTVDLQMNSLKPEDTAVYYCAARDGIPTSRSVGSYNYWGQGTQVTVSS
notes: Humanised TNF2, first round
As to B11, the “EC50 in nM (mean)” value in [5] came to 1.9 nM; in assay [6], 2.42 nM. The molecule further displayed a koff in [7] of 0.00066 s⁻¹.

B12: TNF19 (TNF2 HUM5) (VHH)
VHH: EVQLVESGGGLVQPGGSLRLSCAASGRTFSEPSGYTYTIGWFRQAPGKGREFVARIYWSSGLTYYADSVKGRFTISRDIAKNTVDLQMNSLKPEDTAVYYCAARDGIPTSRSVGSYNYWGQGTLVTVSS
notes: Humanised TNF2, first round
For B12, the “EC50 in nM (mean)” value in assay [5] was 2.19 nM; in assay [6], 7.37 nM. This molecule also returned a koff in assay [7] of 0.00079 s⁻¹.

B13: TNF31 (TNF2 HUM1) (VHH)
VHH: EVQLVESGGGLVQPGGSLRLSCAASGFTFSEPSGYTYTIGWFRQAPGKGREFVARIYWSSGLTYYADSVKGRFTISRDIAKNTVDLQMNSLRPEDTAVYYCAARDGIPTSRSVGSYNYWGQGTQVTVSS
notes: Humanised TNF2, second round; tags not restated
For the molecule B13, in assay [6], the “EC50 in nM (mean)” value came to 2.19 nM. Besides, the koff in [8] stood at 0.00063 s⁻¹. Further, the “EC50 (read off the curve)” value in assay [9] is about 10 ng/mL.

B14: TNF32 (TNF2 HUM2) (VHH)
VHH: EVQLVESGGGLVQPGGSLRLSCAASGFTFSEPSGYTYTIGWFRQAPGKGREFVARIYWSSGLTYYADSVKGRFTISRDIAKNTVDLQMNSLRPEDTAVYYCAARDGIPTSRSVGSYNYWGQGTLVTVSS
notes: as for B13
For the molecule B14, the “EC50 in nM (mean)” value in assay [6] was 2.51 nM. This molecule also displayed a koff in assay [8] of 0.00084 s⁻¹. Besides, in [9], the “EC50 (read off the curve)” value was about 10 ng/mL.

B15: TNF15 (TNF2 HUM1) (VHH)
VHH: EVQLVESGGGLVQPGGSLRLSCAASGRTFSEPSGYTYTIGWFRQAPGKGREFVARIYWSSGLTYYADSVKGRFTISRDIAKNTVDLQMNSLKPEDTAVYYCAARDGIPTSRSVGSYNYWGQGTQVTVSS
notes: Humanised TNF2, first round
On to B15, for which the “EC50 in nM (mean)” value in [5] came to 1.67 nM; in assay [6] it was 5.9 nM. In assay [7], this molecule showed a koff of 0.00054 s⁻¹.

B16: TNF20 (TNF3 HUM1) (VHH)
VHH: EVQLVESGGGLVQPGGSLRLSCAASGRSLSNYYMGWFRQAPGKGRELLGNISWRGYNIYYKDSVKGRFTISRDDSKNTIYLQMNSLKPEDTAVYYCAASILPLSDDPGWNTYWGQGTQVTVSS
As for B16, the “EC50 in nM (mean)” value in [5] and in assay [6] was 0.38 nM each time.

B17: TNF33 (TNF3 HUM1) (VHH)
VHH: EVQLVESGGGLVQPGGSLRLSCAASGRSLSNYYMGWFRQAPGKGRELLGNISWRGYNIYYKDSVKGRFTISRDDSKNTIYLQMNSLRPEDTAVYYCAASILPLSDDPGWNTYWGQGTLVTVSS
For B17, the “EC50 in nM (mean)” value in assay [6] came out at 0.3 nM.

B18: TNF23 (TNF3 HUM4) (VHH)
VHH: EVQLVESGGGLVQPGGSLRLSCAASGRSLSNYYMGWFRQAPGKGRELLGNISWRGYNIYYKDSVKGRFTISRDDSKNTIYLQMNSLKPEDTAVYYCAASILPLSDDPGWNTYWGQGTLVTVSS
For B18, the “EC50 in nM (mean)” value in [5] and in assay [6] was 0.3 nM each time.

B19: TNF21 (TNF3 HUM2) (VHH)
VHH: EVQLVESGGGLVQPGGSLRLSCAASGFTFSNYYMGWFRQAPGKGRELLGNISWRGYNIYYKDSVKGRFTISRDDSKNTIYLQMNSLKPEDTAVYYCAASILPLSDDPGWNTYWGQGTQVTVSS
Take B19: the “EC50 in nM (mean)” value in assay [5] and in [6] was 0.889 nM throughout.

B20: TNF22 (TNF3 HUM3) (VHH)
VHH: EVQLVESGGGLVQPGGSLRLSCAASGRSLSNYYMGWFRQAPGKGRELLGNISWRGYNIYYKDSVKGRFTISRDDSKNTIYLQMNSLKTEDTAVYYCAASILPLSDDPGWNTYWGQGTQVTVSS
In the case of B20, the “EC50 in nM (mean)” value in [5] and in assay [6] was 0.303 nM throughout.

B21: PMP6C1 (VHH)
VHH: AVQLVDSGGGLVQPGGSLRLSCAASGFSFGSFGMSWVRQYPGKEPEWVSSINGRGDDTRYADSVKGRFSISRDNAKNTLYLQMNSLKPEDTAEYYCTIGRSVSRSRTQGTQVTVSS
notes: Class B serum albumin nanobody; tested as unpurified protein
As to B21, the binding result in assay [1], in assay [3] and in [2] was “binds” throughout.

One may read the koff as the rate constant with which the complex falls apart. What is called EC50 (read off the curve) is the concentration that produces a half-maximal response.
